These results are taken from PMC9279676, “ERK2 MAP kinase regulates SUFU binding by multisite phosphorylation of GLI1” (Life Science Alliance, 2022).

Changes are numbered by the printed parent chain. Names may count otherwise. “And” between values parts separate entries of the source, which are not always exact repeats. Identical values can stand only once.

Assay [1] addresses T1, full-length human SUFU protein, 35S-radiolabeled (human, UniProt Q9UMX1-1 1-484, [35S]-methionine label).
T1 construct: human SUFU, full length, residues 1-484, from plasmid pGEM4Z-SUFU; also called 35S-SUFU; radiolabeled SUFU; source: in vitro transcription and translation (SP6, Promega), partially purified by ammonium sulfate precipitation
T1 sequence (looked up): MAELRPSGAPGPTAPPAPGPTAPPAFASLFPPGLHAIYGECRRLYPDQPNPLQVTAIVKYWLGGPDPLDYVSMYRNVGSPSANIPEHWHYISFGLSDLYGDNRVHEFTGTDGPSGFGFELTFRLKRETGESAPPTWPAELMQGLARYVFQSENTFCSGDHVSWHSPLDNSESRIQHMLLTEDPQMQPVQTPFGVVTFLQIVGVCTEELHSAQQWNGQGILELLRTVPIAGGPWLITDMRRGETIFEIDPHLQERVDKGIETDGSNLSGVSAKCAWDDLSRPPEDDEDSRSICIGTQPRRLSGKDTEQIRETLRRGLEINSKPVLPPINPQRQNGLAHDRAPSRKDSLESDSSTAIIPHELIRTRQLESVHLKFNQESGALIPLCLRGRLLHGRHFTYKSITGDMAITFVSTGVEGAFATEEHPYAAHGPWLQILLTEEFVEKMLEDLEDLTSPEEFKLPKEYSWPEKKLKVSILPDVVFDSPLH
The experiment in a line: pull-down; purified GST-GLI1_(68-232) variants (mock treated or ERK2 phosphorylated), 0 or 1.25-80 nM, on glutathione-Sepharose beads; ∼1 pmol 35S-SUFU in 200 μl; 15 min at 30°C, then 1 h at room temperature; Binding Buffer (20 mM Tris-HCl pH 7.5, 125 mM KOAc, 0.5 mM EDTA, 5 mM DTT, 0.1% Tween20, 12.5% glycerol) + 1 mg/ml BSA; bound SUFU quantified by SDS-PAGE and Phosphorimager; Kd from binding isotherms. The conditions noted are these: one partner purified.

In assay [2] the target is T2, full-length human SUFU protein, 35S-radiolabeled (human, UniProt Q9UMX1-1 1-484, [35S]-methionine label).
T2 chain: T1 sequence (looked up)
The experiment in a line: GLI1 phosphorylated by ERK2.

Assay [3] deals with T3, GST-SUFU (fusion of GST to full-length human SUFU) (human, UniProt Q9UMX1-1 1-484).
T3 construct: human SUFU, full length (residues 1-484), BamHI-SUFU-SalI cassette in pGEX-LB; pGEX-LB carries a Gly-Gly-Gly-Gly-Gly-Ser-Gly stretch between GST and the fused protein; also called full-length GST-SUFU; source: Escherichia coli, purified (glutathione-Sepharose); not shown: GST, N-terminal, kept
T3 sequence (looked up): T1 sequence (looked up)
The experiment in a line: pull-down; purified GST-SUFU, 1.25-80 nM, captured on glutathione-Sepharose beads; ∼1 pmol 35S-GLI1 (1-232 or full length) in 200 μl; 15 min at 30°C, then 1 h at room temperature; Binding Buffer + 1 mg/ml BSA; bound GLI1 quantified by SDS-PAGE and Phosphorimager; Kd from binding isotherms. The conditions noted are these: one partner purified.

B1: GST-GLI1_(68-232), wild type, phosphorylated by ERK2 (domain or fragment, human, UniProt P08151-1 68-232, looked up)
chain: FSSPRSAVKLTKKRALSISPLSDASLDLQTVIRTSPSSLVAFINSRCTSPGGSYGHLSIGTMSPSLGFPAQMNHQKGPSPSFGVQPCGPHDSARGGMIPHPQSRGPFPTCQLKSELDMLVGKCREEPLEGDMSSPNSTGIQDPLLGMLDGREDLEREEKREPESV
modifications: phosphorylated by ERK2 to ∼3 mol phosphate per mole; most efficient sites Ser116 and Ser130, followed by Ser102 and Ser201
notes: vector pGEX-LB; also called ERK2-phosphorylated GLI1; WT + ERK2; source: bacteria, purified (glutathione-Sepharose); then phosphorylated with purified active ERK2 (2 h, 30°C)
Turning to B1, the Kd (as a rule, the free concentration of one partner at which half of the binding sites on the other are occupied at equilibrium, for simple one-to-one binding) in assay [1] worked out at 93 nM; in assay [2], 118 nM.

B2: GST-GLI1^SSS (GST-GLI1_(68-232) S70A S86A S146A S201A), mock treated (domain or fragment, human, UniProt P08151-1 68-232, looked up)
chain: B1 chain with S3A, S19A, S79A, S134A
notes: only S102, S116 and S130 left intact; source: bacteria, purified (glutathione-Sepharose); mock treated (no ERK2)
As for B2, in assay [1], the Kd came to 2.6 nM.

B3: GST-GLI1^S102,S130, phosphorylated by ERK2 (domain or fragment, human, UniProt P08151-1 68-232, looked up)
chain: B1 chain with S3A, S19A, S49A, S79A, S134A
modifications: phosphorylated by ERK2; intact SP sites S102, S130
notes: only the SP sites S102 and S130 intact; also called ERK2-treated GLI1^S102,S130; source: bacteria, purified (glutathione-Sepharose); then phosphorylated with purified active ERK2
Regarding B3, in assay [1], the Kd is 25 ± 3 nM.

B4: GST-GLI1^AAA (GST-GLI1_(68-232) S102A S116A S130A), mock treated (domain or fragment, human, UniProt P08151-1 68-232, looked up)
chain: B1 chain with S35A, S49A, S63A
notes: source: bacteria, purified (glutathione-Sepharose); mock treated (no ERK2)
On to B4, for which, in assay [1], the Kd came to 17 nM.

B5: GST-GLI1^7A, treated with active ERK2 (domain or fragment, human, UniProt P08151-1 68-232, looked up)
chain: B1 chain with S3A, S19A, S35A, S49A, S63A, S79A, S134A
modifications: treated with ERK2; only minimally phosphorylated
notes: also called 7A+ERK2; ERK2-treated GLI1^7A; source: bacteria, purified (glutathione-Sepharose); then treated with purified active ERK2
For B5, in assay [1], the Kd was roughly 23 nM.

B6: GST-GLI1^SSS, phosphorylated by ERK2 (domain or fragment, human, UniProt P08151-1 68-232, looked up)
chain: B1 chain with S3A, S19A, S79A, S134A
modifications: phosphorylated by ERK2; intact SP sites S102, S116, S130
notes: only S102, S116 and S130 left intact; also called ERK-phosphorylated GLI1^SSS; phosphorylated GLI1^SSS mutant; source: bacteria, purified (glutathione-Sepharose); then phosphorylated with purified active ERK2
B6: the Kd in assay [1] is 127 nM.

B7: GST-GLI1^S102,S116, phosphorylated by ERK2 (domain or fragment, human, UniProt P08151-1 68-232, looked up)
chain: B1 chain with S3A, S19A, S63A, S79A, S134A
modifications: phosphorylated by ERK2; intact SP sites S102, S116
notes: only the SP sites S102 and S116 intact; also called ERK2-treated GLI1^S102,S116; source: bacteria, purified (glutathione-Sepharose); then phosphorylated with purified active ERK2
As to B7, in assay [1], the Kd was 43 ± 8 nM.

B8: GST-GLI1^S102 (GST-GLI1_(68-232), only S102 intact), mock treated (domain or fragment, human, UniProt P08151-1 68-232, looked up)
chain: B1 chain with S3A, S19A, S49A, S63A, S79A, S134A
notes: only the SP site S102 intact; also called S102 one site only; source: bacteria, purified (glutathione-Sepharose); mock treated (no ERK2)
Turning to B8, the Kd in assay [1] is roughly 3 nM.

B9: GST-GLI1^7A (GST-GLI1_(68-232) with all seven SP serines changed to alanine), mock treated (domain or fragment, human, UniProt P08151-1 68-232, looked up)
chain: B1 chain with S3A, S19A, S35A, S49A, S63A, S79A, S134A
notes: as for B4
Regarding B9, the Kd in assay [1] was roughly 23 nM.

B10: GST-GLI1_(68-232), wild type, unphosphorylated (mock treated) (domain or fragment, human, UniProt P08151-1 68-232, looked up)
chain: B1 chain
notes: vector pGEX-LB (Gly-Gly-Gly-Gly-Gly-Ser-Gly stretch between GST and the fused part); the plasmid is from Whisenant et al, 2010; also called wild-type GLI1; WT; source: bacteria, purified (glutathione-Sepharose); untreated or mock treated (no ERK2)
For the molecule B10, the Kd in assay [1] is ~4 nM and 4 nM and 3 nM.

B11: GST-GLI1^AAA, treated with active ERK2 (domain or fragment, human, UniProt P08151-1 68-232, looked up)
chain: B1 chain with S35A, S49A, S63A
modifications: treated with ERK2; S70, S86, S146 and S201 remained intact as possible phosphosites
notes: also called GLI1^AAA + ERK2; source: bacteria, purified (glutathione-Sepharose); then phosphorylated with purified active ERK2
B11: in assay [1], the Kd is 20 nM.

B12: GST-GLI1^S102, phosphorylated by ERK2 (domain or fragment, human, UniProt P08151-1 68-232, looked up)
chain: B1 chain with S3A, S19A, S49A, S63A, S79A, S134A
modifications: phosphorylated by ERK2; only intact SP site S102
notes: only the SP site S102 intact; also called ERK2-treated GLI1^S102; source: bacteria, purified (glutathione-Sepharose); then phosphorylated with purified active ERK2
As to B12, the Kd in assay [1] worked out at 14 ± 4 nM.

B13: GST-GLI1^S116 (GST-GLI1_(68-232), only S116 intact), mock treated (domain or fragment, human, UniProt P08151-1 68-232, looked up)
chain: B1 chain with S3A, S19A, S35A, S63A, S79A, S134A
notes: only the SP site S116 intact; also called S116 one site only; source: bacteria, purified (glutathione-Sepharose); mock treated (no ERK2)
As for B13, the Kd in assay [1] was 14 nM.

B14: GLI1_(1-232), wild type, 35S-radiolabeled (domain or fragment, human, UniProt P08151-1 1-232, looked up)
chain: MFNSMTPPPISSYGEPCCLRPLPSQGAPSVGTEGLSGPPFCHQANLMSGPHSYGPARETNSCTEGPLFSSPRSAVKLTKKRALSISPLSDASLDLQTVIRTSPSSLVAFINSRCTSPGGSYGHLSIGTMSPSLGFPAQMNHQKGPSPSFGVQPCGPHDSARGGMIPHPQSRGPFPTCQLKSELDMLVGKCREEPLEGDMSSPNSTGIQDPLLGMLDGREDLEREEKREPESV
modifications: [35S]-methionine label
notes: source: in vitro transcription/translation (T7), partially purified by ammonium sulfate precipitation
For B14, the Kd in assay [3] was 8 nM and 14 nM.

B15: GLI1_(1-232) S105F (tumor-derived), 35S-radiolabeled (domain or fragment, human, UniProt P08151-1 1-232, looked up)
chain: B14 chain with S105F
modifications: [35S]-methionine label
notes: source: in vitro transcription/translation, partially purified by ammonium sulfate precipitation
Regarding B15, in assay [3], the Kd was 181 ± 30 nM.

B16: GLI1_(1-232) S102E S130E, 35S-radiolabeled (domain or fragment, human, UniProt P08151-1 1-232, looked up)
chain: B14 chain with S102E, S130E
modifications: [35S]-methionine label
notes: also called S102E S130E double mutant; source: in vitro transcription/translation (T7), partially purified by ammonium sulfate precipitation
As to B16, in assay [3], the “fold reduction in affinity against wild-type GLI1_(1-232)” value (from here on “fold reduction in affinity”) worked out at 38 fold.

B17: GLI1_(1-232) S102E S116E, 35S-radiolabeled (domain or fragment, human, UniProt P08151-1 1-232, looked up)
chain: B14 chain with S102E, S116E
modifications: [35S]-methionine label
notes: also called S102E S116E double mutant; source: in vitro transcription/translation (T7), partially purified by ammonium sulfate precipitation
As to B17, in assay [3], the “fold reduction in affinity” value came to 12 fold.

B18: GLI1_(1-232) L124P (tumor-derived), 35S-radiolabeled (domain or fragment, human, UniProt P08151-1 1-232, looked up)
chain: B14 chain with L124P
modifications: [35S]-methionine label
notes: as for B15
Take B18: in assay [3], the Kd was 3800 nM.

B19: GLI1_(1-232) S102E, 35S-radiolabeled (domain or fragment, human, UniProt P08151-1 1-232, looked up)
chain: B14 chain with S102E
modifications: [35S]-methionine label
notes: as for B14
Take B19: the “fold reduction in affinity” value in assay [3] was roughly 8 fold.

B20: GLI1_(1-232) S102E S116E S130E, 35S-radiolabeled (domain or fragment, human, UniProt P08151-1 1-232, looked up)
chain: B14 chain with S102E, S116E, S130E
modifications: [35S]-methionine label
notes: also called S102E S116E S130E triple mutant; EEE; source: in vitro transcription/translation (T7), partially purified by ammonium sulfate precipitation
For the molecule B20, the “fold reduction in affinity” value in assay [3] was determined as 65 fold.
